Data from patent US20200317791A1.

Key:
[1] = target: T1, HLA-Cw6/ADAMTSL5-Abu on rhHLA-Cw6 expressing cells loaded with ADAM-Abu peptide (human), P10321
[2] = target: T1, HLA-Cw6/ADAMTSL5-Abu on rhHLA-Cw6 …; test: cell-based or functional assay

IC50 (read off the curve) [1] | IL-2 % Inhibition (8.5 nM mAb), HLA-Cw6-00254 [2] | IL-2 % Inhibition (8.5 nM mAb), HLA-Cw6-00290 [2] | Binder
0.03 µg/mL | 100% | 100% | CW6B130 (antibody, V domains shown) VH: QLQLQESGPGLVKPSETLSLTCTVSGASISSINYYWGWIRQPPGKGLEWIGSFYYSGNTYYNPSLKSRVTISVDTSKNYFSLKLNSVTAADTAVYYCAREYYDSSGYYPFEPWGQGTLVTVSS VL: SYVLTQPPSVSVAPGQTARITCGGDNIGSESVHWYQQKPGQAPVLVVYDDTDRPSGIPERFSGSKSGTTATLTISWVEAGDEADYYCQVWDSSSDHVVFGGGTKLTVL
– | 9% | – | CW6B188 (antibody, V domains shown) VH: EVQLVESGGGLVQPGGSLRLSCAASGFTFTNYWMTWVRQAPGKGLEWVANIKQSGNEKYYVDSVKGRFTISRDNAKNSLYLQMNSLRAEDTAVYYCARTLYEWELEPFDYWGQGTLVTVSS VL: SYVLTQPPSVSVAPGQTARITCGGNRIGSKNLHWYQQKPGQAPVLVVYDDSDRPSGIPERFSGSNSGSTATLTISRVEAGDEADYYCQVWDSSRDHVVFGGGTKLTVL
0.2 µg/mL | 85% | 96% | CW6B175 (antibody, V domains shown) VH: EVQLVESGGGLVQPGGSLRLSCAASGFTFTNYWMTWVRQAPGKGLEWVANIKQSGSEKYYVDSVKGRFTISRDNAKNSLYLQMNSLRAEDTAVYYCARTLYEWELEPFDYWGQGTLVTVSS VL: SYVLTQPPSVSVAPGQTARITCGGNRIGSKSVHWYQQKPGQAPVLVVFDDSDRPSGIPERFSGSNSGITATLTISRVEAGDEADYYCQVWDSSNDHVVFGGGTKLTVL
– | – | 100% | CW6B228 (antibody, V domains shown) VH: QVQLQESGPGLVKPSETLSLTCTVSGNSIRSYYWSWIRQPAGKGLEWIGRIYISGNTNYNPSLKSRVTMSIDTSKNQFSLKLSSVTAADTAVYYCARLSGIDAFDIWGQGTMVTVSS VL: DIQMTQSPSSLSASVGDRVTITCQASQDINNYLNWYQQKPGKAPKLLIYDASSLETGVPSRFSGSGSGTDFTFTISSLQPEDFATYYCQQYDDLPITFGQGTRLEIK
0.2 µg/mL | – | 86% | CW6B229 (antibody, V domains shown) VH: QVQLQESGPGLVKPSETLSLTCTVSGNSIRSYYWSWIRQPAGKGLEWIGRIYISGNTNYNPSLKSRVTMSIDTSKNQFSLKLSSVTAADTAVFYCARLSGIDAFDIWGQGTMVTVSS VL: DIQMTQSPSSLSASVGDRVTITCQASQDISNYLNWYQQKPGKAPKLLIYDASNLETGVPSRFSGSGSGTDFTFTISSLQPEDFATYYCQQYDNLPITFGQGTRLEIK
0.2 µg/mL | – | 91% | CW6B233 (antibody, V domains shown) VH: QVQLQESGPGLVKPSETLSLTCTVSGNSIRSYYWSWIRQPAGKGLEWIGRIYISGNTNYNPSLKSRVTMSIDTSKNQFSLKLSSVTAADTAVYYCARLSGIDAFDIWGQGTMVTVSS VL: DIQMTQSPSSLSASVGDRVTITCQASQDITNYLNWYQQKPGKAPKLLIYDASNLETGVPSRFSGSGSGTDFTFTISSLQPEDFATYYCQQYDNLPITFGQGTRLEIK
0.2 µg/mL | – | 93% | CW6B230 (antibody, V domains shown) VH: QVQLQESGPGLVKPSETLSLTCTVSGNSISNYYWSWIRQPAGKGLEWIGRIYITGNTNYNPSLKSRVTMSLDTSKNQFSLKLSSVTAADTAVYYCARLSGIDAFDIWGQGTMVTVSS VL: DIQMTQSPSTLSASVGDRVTFTCQASQDITKYLNWYQQKPGKAPKLLIYDASNLETGVPSRFSGSGSGTDFTFTISSLQPEDFATYYCQQYDDLPITFGQGTRLEIK
0.2 µg/mL | – | 86% | CW6B238 (antibody, V domains shown) VH: QVTLKESGPVLVKPTETLTLTCTVSGFSLNNARMGVSWIRQPPGKALEWLAHMFSSDEKFYRTSLKSRLTISKDTSKSQVVLTMTNMDPVDTATYYCARISLYSSGHDTFDLWGQGTMVTVSS VL: AIQMTQSPSSLSASVGDRVTITCRASQDIRNTLGWYQQKPGKAPNLLIYAASSLQSGVPSRFSGSGSGTDFTLTISSLQPEDFATYYCLQDYDYPLTFGGGTKVEIK
– | – | 59% | CW6B237 (antibody, V domains shown) VH: QVTLKESGPVLVKPTETLTLTCTVSGFSLSNARMGVSWIRQPPGKALEWLAHIFSHDEKFYSTFLKSRLTISKDTSKSQVVLMMTNMDPVDTATYYCARIILSSSGHDAFDIWGQGTMVTVSS VL: AIQMTQSPSSLSASVGDRVTITCRASQDIRHNLGWYQQKPGKAPNLLIYAASSLQSGVPSRFSGSGSGTDFILTISSLQPEDFATFFCLQDYIYPLTFGGGTKVEIK
